Here are results for two molecules from patent publication US20160090605A1 (ACADEMIA SINICA, published 2016).

One data set has as its target T1, ER-body protein NAI2 (Arabidopsis, UniProt Q9LSB4 25-772, limits assumed).
T1 construct: also called AT3G15950
T1 sequence: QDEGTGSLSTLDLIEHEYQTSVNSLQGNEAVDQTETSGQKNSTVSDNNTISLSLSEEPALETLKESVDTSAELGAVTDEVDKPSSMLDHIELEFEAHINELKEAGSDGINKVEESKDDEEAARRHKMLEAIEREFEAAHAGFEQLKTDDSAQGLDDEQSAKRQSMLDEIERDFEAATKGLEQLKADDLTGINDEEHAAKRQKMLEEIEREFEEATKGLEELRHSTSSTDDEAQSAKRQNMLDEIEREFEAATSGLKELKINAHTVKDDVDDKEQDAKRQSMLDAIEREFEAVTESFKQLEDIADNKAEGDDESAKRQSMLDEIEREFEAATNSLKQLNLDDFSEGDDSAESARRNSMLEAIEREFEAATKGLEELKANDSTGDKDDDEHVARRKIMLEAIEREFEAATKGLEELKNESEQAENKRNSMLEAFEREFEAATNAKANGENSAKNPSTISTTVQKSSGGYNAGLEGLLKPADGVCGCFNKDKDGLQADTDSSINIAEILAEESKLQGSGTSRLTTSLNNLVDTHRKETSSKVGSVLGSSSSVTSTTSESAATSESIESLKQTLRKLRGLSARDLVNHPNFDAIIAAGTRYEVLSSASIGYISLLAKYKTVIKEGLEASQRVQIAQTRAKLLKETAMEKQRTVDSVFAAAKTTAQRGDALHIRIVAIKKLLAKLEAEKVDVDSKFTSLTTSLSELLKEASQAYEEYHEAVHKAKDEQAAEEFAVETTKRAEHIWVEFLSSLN
As to the kind of experiment: yeast two hybrid library screen (AFL1 N-terminus). As to the method: A yeast two hybrid library was prepared using mRNA from seedlings exposed to −1.2 MPa low water potential stress for 96 h. The library was prepared using the Cloneminer II cDNA construction (Invitrogen) according to the manufacturer's instructions. Yeast two hybrid screening was performed using the ProQuest Two-hybrid system (Invitrogen) following manufacturer's instructions with an N-terminal fragment of AFL1 (amino acids 1 to 208) as bait. The bait fragment was cloned into destination vector pDEST23 and co-transformed into MaV203 along with clones from the cDNA library using LiAc X transformation. […] Colonies that grew on the selective media were re-streaked and subjected to β-galactosidase filter assay to confirm interaction. Out of approximately 8×10⁵ colony forming units screened, clones of PDI5, NAI2, and TSA1 were detected repeatedly. Most of these clones were C-terminal truncations. Full length cDNA clones of PDI5, NAI2 and TSA1 were obtained (using the cloning procedures described above) and confirmed to interact with the AFL1 bait construct in β-galactosidase filter assays.

Data set [1] deals with the molecule itself. As to the kind of experiment: mbSUS split-ubiquitin interaction assay, full length AFL1 with itself. As to the method: Mating-based Split-Ubiquitin System (mbSUS) assays were performed as previously described using vectors and yeast strains obtained from the Arabidopsis Biological Resource Center. Full length AFL1 as well as putative interactors were expressed in yeast strains THY.AP4 and THY.AP5, respectively, by recombinational in vivo cloning and plated on SC-Leu-Met or SC-Trp-Ura-Met (SC/+AHL) plates for selection. The interaction was tested by X-gal agarose overlay assay.

B1: AFL1 N-terminal fragment (amino acids 1 to 208) (other)
chain: MALSKDLMLKCSEDMMSAYKSACEEHPKLKSFDASLQQRTNKMIDSLTVEDKNGSSSPHDAHMELSKHLVEVTQGVADFITEIEDDVWDNQALKYLVLAYFENTKKTLEIFKTIENCVENAEMGQLLIREALAEFEKESAEKDVGGKKKKYEKTLEDLKSFKEMGDPFDGKVLTTQFERIKKQQESLLEEVSETRKKIQDEISNLEKK
notes: Yeast two hybrid bait in a ProQuest destination vector (printed as pDEST23); also called AFL1 N-terminus; N-terminal domain of AFL1
In the case of B1, the binding result in the data set with ER-body protein NAI2 is recorded as “binds”.

B2: At14a-like1 (AFL1), full length (other)
chain: MALSKDLMLKCSEDMMSAYKSACEEHPKLKSFDASLQQRTNKMIDSLTVEDKNGSSSPHDAHMELSKHLVEVTQGVADFITEIEDDVWDNQALKYLVLAYFENTKKTLEIFKTIENCVENAEMGQLLIREALAEFEKESAEKDVGGKKKKYEKTLEDLKSFKEMGDPFDGKVLTTQFERIKKQQESLLEEVSETRKKIQDEISNLEKKTLITNVVFGAAFAIVAVASIALIATGVGAAAGFGALAAPLLAAGWAGVYTTLDKKKDALNKQLEGLKKVEEIEESVEKGIKTNEEATETVSILVDGLEDRIKNMLKLVDNAIDHEDNEAATRIVLTQISKKVEKLTKKITEVGESVEDHSKLIAKARLQVLQKINR
notes: Full-length AFL1; In mbSUS it was a split-ubiquitin fusion expressed in yeast; In BiFC it was a fusion to a YFP half (YFPN or YFPC, the latter MYC-tagged); This entry also stands for native AFL1 in seedling extracts (47 kDa band; co-purified with YFP-AFL1); also called AT3G28270; Full Length AFL1
B2: in data set [1], the binding result was “binds”.
